Assay: yeast display, Sf9 membrane polyspecificity reagent, FACS + sequencing; frameworks hold sequencing errors
Outline: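 Polyreactivity labels are assigned by the sorting gate from which each nanobody was recovered. The gates were low and high (top ~1%), set on anti-HA fluorescence for expression and streptavidin fluorescence for reagent binding. Before sorting, galactose-induced (36–48 hours) yeast display cells were stained for 1 hour at 4 °C with 10% biotinylated, detergent-solubilized Sf9 membrane reagent.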

Sequence | polyreactivity (PSR sort gate)
QVQLVESGGGLVQAGGSLRLSCAASGSIFSSYAMGWYRQAPGKERELVAAISWRGGSTYYADSVKGRFTISRDNAKNTVYLQMNSLKPEDTAVYYCAAQYQYYGGRRYDYWGQGTQVTVSS | high polyreactivity
QVQLVESGGGLVQAGGSLRLSCAASGGIFLDYVMGWYRPATGKQRELVAAISGSGGTNYADSVKGRFTISRDNAKNTVYLQMNSLKPEDTAVYYCAAVGYYSYSYYTKVGVDYWGQGTQVTVSS | high polyreactivity
QVQLVESGGGLVQAGCSLRLSCAASGSIFAPYAMGWYRQAPGKERELVAAISYSGGSTYYADSVKGRLTISRDNAKNTVYLQMNSLKPEDTAVYYCAARVLHQDFYKRYYWGQGTQVTVSS | high polyreactivity
QVQLEESGGGLVQAGGSLRLSCAASGSIFVHNDMGWYRQAPGKERELVATIDSAGGTYYADSVKGRFTISRDNAKNTVYLQMNSLKPEDTAVYYCAAYGPYVLSIYDYWGQGTQVTVSS | low polyreactivity
QVQLVESGGGLVQAGASLRLSCAASGRTFSENAMGWYRQAPGKERELVAAISGSGGRTYYADSVKGRFTISRDNEKNTVYLQMKSLKPEVTAVYYCAKVTRYGSTYDYWGQGTQVTVSS | high polyreactivity
QVPVVASGGGFVQAGGRLRLSCAASGRTFFYNAMGWYRQAPGKERESTYYADSVKGRFTISRDNAKNTVYLQMNSLKPEDTAVYYFAAATAYVAYEGDKGDYWGQGTQVTVSA | low polyreactivity
QVQHVESGGGLVQAGGSLRLSCAASGSTYTVYAMGRDRQAPGKERELVAAISGSGGRTYYADSVKGRFTISRDNAKNTVYLQMNILKPEDTGVYYCASQGNYWGQGTQVTVSS | high polyreactivity
QVHLVESGGGLVQAGGSLRLSCAASGSTFKRNAMGWYRQAPGKERELVAAITQRGGRTYYADSVKGRFTISRDNAKNTVYLQMNSLKPEDTAVYYCAVDSQTANDYDYWGQGTEVTVSS | low polyreactivity
QVQLVESGGGLVQAGGSLRLSCAASGSTFITYAMGWYRQAPGKERELVAAIRFSGDTTYADSVKGRFTISRDNAKNTVNLQLNCLKPEDTAVYYCAVVLYRYDGRKYWRDYWGQGTQVTVSS | high polyreactivity
QVQLVESGGGLVQAGGSLRLSCAASGRTFRRNAMGWYRQAPGKERELVASITRNGGSTYYADSVKGRFTISRDNAKNTVYLQMNILKPEDTAVYYCYKTQPIDLYGYWGQGTQVTVSS | high polyreactivity
QVQLVESGGGLVQAGGSLRLSCAASGSTIRRYAMGWSRQAPGKERELVAAITRSGGSTYYADSVKGRFTISRDNAKNTVYLQMNSLKPEDTEVYYCAADTGTGLDWGQGTQVTVSS | high polyreactivity
QVQLVESGGGLVQAGGSLRLSCAASGRTFYGYAMGWYRQAPGKERELVASISRDASTNYADSVKGRFTISRDNAKNTVYLQMNSLKPEDTAVYYCAADIWYYRYPIYYYSYDYWGLGTQVTVSS | low polyreactivity
QVQLVESGGGLVQAGGSLRLSCAASGSIFFYYTMGWYRQAPGKEREFVAAISGSGGSTYYADSVKGRFTISRDNAKNTVYLQMNSLKPEDTAVYYCAAGLRLDLGAMYYWGQVTQVTVSS | low polyreactivity
QVQLVESGGGLVQAGGSLRLSCAASGFTIAGYAMGWYRQAPWKERELVAAISRGGITYYADSVKGRFTISRDNAKNTVYLQMNSLKPEDTAVYYCAAGKRWSTKYGYWGQGTQVTVSS | high polyreactivity
QVQLVESGGGLVQAAGSLRLSCAASGFIFHYNAMGWYRKATGKERELDASITASASRTYYADSVKGRFTISLDNAKNTVYLQMNSLKPEDTAVYYCAKAIRITITRYRFGYWVQGTQVTVSS | high polyreactivity
QVQLVESGGGLVQAGGSLRLSCAASGRTFEIYAIGWYSKAPGKERELVAAISSGGSTYYADSVKGRFTISRDNAKNTVYLQMNSLKPEDTAVYYCAVRWYDQVSRRGIGYYWGQGTQVTVSS | low polyreactivity

Sequence | polyreactivity (PSR sort gate)
QVQLVESGGGLVQAGGSLRLSCAASGLTFVYNNMGWYRQAPGKERELVAAINWSGGRTYYADSVKGRFTISRDNAKNTVYLQMNSLKPEDTAVYYCAALYVPNTPTYKYDYWGQGTQVTVSS | low polyreactivity
QVQLVESGGGLVQAGGSLRLSCAASGLIFRRYVMGWYRQAPGKERELVAAITSRGTRTYYADSVKGRFTISRDNAKNTVYLQMNSLKPEDTAVYYCAADGGISAGANSGYDYWGQGTQVTVSS | high polyreactivity
QVQHVESGGGLVQAGGSLRLSCAASGSTFYRNTKGWYRQAPGKETELVAAISRSGGSTYYADSVKGRFTISRDNAKNTVYVQMNSLKPEDTAVYYCNADYTDYQTYSATTYEYWGQGTQVTVSS | low polyreactivity
QVQLVESGGGLVQAGGSLRLSCAASGSIFYVYAMGWYRQAPGKERELVATIDWSGGSTYYADSVKGRFTISRDNAKNTVYLQMNSLKPEDTAVYYCAAPTEQDPFAPVAFYRYDYWGQGTQVTLSS | low polyreactivity
QVQLVESGGGLVQAGGSLRLSCAASGRIFSLNAMGWYRQAPGKERELVAGIRKRGGSTYYADSVKGRFTISRDNAKNTVYLQMNSLKPEDTAVYYCAARFYYGPGGYTMYYWGQGTQVTVSS | high polyreactivity
QVQHVESAGGLVQAGGSLRLSCAASGRTFDYNAMGWYRQAPGKERELVAAISWRGGNTYYADSVKGRFTISRDNAKNTVYLQMNSLKPEDTAVYYCGAVYRYSTRNYGYWGQGTQVTVSS | high polyreactivity
QVQLVESGGGLVQAGGSLRLSCAASGRIFYTNAMGWYRQAPGKERELVAVISWGGDTTYYADSVKGRFTISRDNAKNTVYLQMNSLKPEDTAVYYCKADWGPTYEIYDSWGQGTQVTVSS | low polyreactivity
QVQLVESGGGLVQAGGSLRLSCSASGSTFDTYAMGWYRKAPGKERELVAAISRSGGSTYYADSVKWRFTISRDNAKNTVYLQMNSLKPEDTAVYFCNALSGDLAGDYWGQGTQVTVSS | high polyreactivity
QVQLVESGGGLVQAGGSLRLSCADSGFISDWYAMGWYRQAPGKERELVATIDWIGGSTYADSVKGRFTISRDNAKNTVYLQMNSMKPEDTAVYYCNAYAFDSVREEDYWGQGTQVTVSS | low polyreactivity
QVQLVESGGGLVQAGGSLRLSCAAYGSTFYAYAMGWYRQAPGKERELVAAIDSGGSTYYADSVKGRFTISRDNAKNTVYLQMNSLKPEDTAVYYCAVRHRYTRAYWGRDYWGQGTQVTVSS | low polyreactivity
QVQLVESGGALVQAGGSLRLSCAASGSIFSRYTMGWYRQAPGKERELVAAIPSSGGRTYYADSVKGRFTNSRDNAKNTVYLQMNSLKPEDTAVYYCNAGGAYEYDYWGQGTQVTVSS | high polyreactivity
QVQRVESGGGLVQAGGSLRLSCAASGNIFVYYAMGWYRQAPGKERELVAAISSDVSTYYADSVKGRFTISRDNAKNTVYLQMNSLKPEDTAVYYCATTGYGSYVIYWGQGTQVTVSS | low polyreactivity
QVQLVESGGGLVQAGGSLRLSCAASGSTFPYNAMGWYRQAPGKERELVAAITWRAGRTYYADSVKGRFTISRDNAKITVYLHMNSLKAEDTAVYYCAKSYQRGVNHYEYWGQGTQVTVSS | high polyreactivity
QVQLVESGGGLVQAGGSLRLSCAASGLTFYKNAMGWYRQAPGKERELVAVISSSGGSTYYADSVKGRFTISRDNAKNTVYLQMYSLKPEDSAVYYFARDLYTEYRWGRLTYDYRGQGTQVTVSS | low polyreactivity
QVQLVDSGGGLVQAGGSLRLSCAASGFTFRDYAMGWYRQAPRKERELVAAISRSGDSTYYADSVKGRFTISRDNAKNTVYLQMNSLKPEDTAVYYCNTAGFYWLHYTMDYWGQGTQVTVSS | high polyreactivity
QVQLVESGGGLFQAGGSLRLSSAASGTRYYAMGWYRPAPGKERELVAGIRWRDGGTYYADSVKGRFTISRDNAKNTFYLQLNSLKPEDTAVYYCNASVTSWYKRAGYYWGQGSQVTVSS | high polyreactivity

— the nanobody polyreactivity screen of Harvey et al. (2022)
